B1: R8C11VH/L4G6VK-mIgG2a (antibody, V domains shown)
VH: QVQLQQWGAGLLKPSETLSLTCAVFGGSFSGYYWSWIRQPPGKGLEWIGEINHRGNINDNPSLKSRVTISVDTSKNQFALKLSSVTAADTAVYYCARERGYSFGNYDHWGQGTLVTVSS
VL: EIVMTQSPATLSVSPGERATLSCRASQTVTRNLAWYQQKPGQAPRLLIYGASTRATGIPARFSGSGSGTEFTLTIGSLQSEDFAVYYCQQYKSWPRSFGQGTNVEIK
notes: Whole antibody with human variable regions and mouse constant regions (pMABG2a, pMABK); also called R8C11+L4G6
B2: R8C11VH/L3B4VK-mIgG2a (antibody, V domains shown)
VH: QVQLQQWGAGLLKPSETLSLTCAVFGGSFSGYYWSWIRQPPGKGLEWIGEINHRGNINDNPSLKSRVTISVDTSKNQFALKLSSVTAADTAVYYCARERGYSFGNYDHWGQGTLVTVSS
VL: EIVMTQSPATLSVSPGERATLSCRASQTVTRNLAWYQQKPGQAPRLLIYGASTRATGIPARFSGSGSGTEFTLTIGSLQSEDFAVYYCQQYKSWPRTFGQGTNVEIK
notes: Whole antibody with human variable regions and mouse constant regions (pMABG2a, pMABK); also called R8C11+L3B4
B3: R7C8+L1E2 (Fab clone from the recombinant human phage antibody library) (Fab, V domains shown)
VH: QVQLQQWGAGLLKPSETLSLTCAVFGGSFSGYYWSWIRQPPGKGLEWIGEINHRGNINDNPSLKSRVTISVDTSKNQFALKLSSVTAADTAVYYCARERGYTYGNYEHWGQGTLVTVSS
VL: EIVMTQSPATLSVSPGERATLSCRASQTVNRNLAWYQQKPGQAPRLLIYGASTRATGIPARFSGSGSGTEFTLTIGSLQSEDFAVYYCQQYKTWPRTFGQGTNVEIK

Assays:
[1] = target: T1, GCC-His fusion protein (recombinant extracellular region of GCC with His tag) (human, UniProt P25092 24-430); assay: ELISA, GUC2C-his coat 3ug/ml, antibody titrated, OD490
T1 construct: also called GUC2C-His; recombinant GCC extracellular domain

[2] = target: T1, GCC-His fusion protein (recombinant …); assay: BIAcore (SPR), GCC-His as mobile phase
[3] = target: T1, GCC-His fusion protein (recombinant …); assay: phage-ELISA, Fab phage library screened on GCC-His

Binder	EC50 (read off the curve) [1] [nM]	Kd [2] [nM]	binding result [3]
B1	~2	11.8	–
B2	–	11.2	–
B3	–	–	binds
